How the values were obtained:
[1] = target: T1, TNF-alpha (Homo sapiens, UniProt P01375 P01375:77-233); assay: flow; PBSMCT buffer, room temperature, 3 h; settings: tags: biotinylated; R&D Systems; chain copies: 3 (inferred)
Experimental: (§1) MyOne carboxylic acid magnetic particles were coated with amino-modified candidate nucleic acid agents S01, B01, or VR11 (a previously published TNF-α candidate nucleic acid agent), or with mAb11 antibody (a commercial TNF-α antibody). […] The unbound TNF-α was washed away with PBSMCT, after which streptavidin-conjugated Alexa Fluor 488 was introduced and incubated for 15 minutes to label the bound TNF-α. The particles were washed with PBSMCT and median fluorescence intensities were quantified via FACS.
(§2) Sequences and relative affinities of all candidate nucleic acid agents are shown in the methods above.

[2] = target: T1, TNF-alpha; assay: flow; PBSMCT buffer (2.5 mM MgCl2, 1 mM CaCl2), room temperature, 3 h; 0.27 nM in serum; settings: tags: biotinylated; R&D Systems; chain copies: 3 (inferred)
Experimental: as §1, §2

[3] = target: T2, HRP-2 (Histidine-Rich Protein 2) (UniProt P05227 P05227:22-332); assay: flow; PBSMCT buffer; 0.124 nM in 10% human serum; settings: tags: His-Tag; Fitzgerald Industries International
T2 sequence: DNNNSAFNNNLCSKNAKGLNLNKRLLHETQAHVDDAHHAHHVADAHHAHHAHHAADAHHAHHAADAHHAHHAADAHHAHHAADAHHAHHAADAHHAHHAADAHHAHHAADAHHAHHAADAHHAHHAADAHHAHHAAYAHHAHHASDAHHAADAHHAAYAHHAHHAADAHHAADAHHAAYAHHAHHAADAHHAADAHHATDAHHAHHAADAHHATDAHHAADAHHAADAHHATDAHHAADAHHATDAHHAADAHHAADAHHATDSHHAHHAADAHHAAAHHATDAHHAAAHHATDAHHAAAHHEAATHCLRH

[4] = target: NGAL (Neutrophil Gelatinase-Associated Lipocalin) (Homo sapiens, UniProt P80188 P80188:21-198); assay: flow; PBSMCT buffer; 1.28 nM in 10% human serum; settings: tags: His-Tag; R&D Systems
Sequence of NGAL (Neutrophil Gelatinase-Associated Lipocalin) (P80188 21-198, one chain of several): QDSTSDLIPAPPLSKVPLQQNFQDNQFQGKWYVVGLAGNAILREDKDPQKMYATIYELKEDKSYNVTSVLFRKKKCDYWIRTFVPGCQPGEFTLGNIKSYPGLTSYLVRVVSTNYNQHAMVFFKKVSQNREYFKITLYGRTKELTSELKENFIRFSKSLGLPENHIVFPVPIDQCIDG

T1 sequence (P01375 77-233, one chain of several): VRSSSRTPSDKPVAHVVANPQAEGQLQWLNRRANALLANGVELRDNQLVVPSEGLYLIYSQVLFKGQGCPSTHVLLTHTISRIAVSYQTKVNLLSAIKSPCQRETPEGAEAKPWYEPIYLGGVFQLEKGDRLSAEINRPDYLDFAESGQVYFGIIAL

B1: B01 (ssDNA)
DNA: ATCCAGAGTGACGCAGCAGGTTAAGGTGTAGGTCCGGGTGGGGGGGTGGGTTGGGGGACTGGTGGACACGGTGGCTTAGT
modifications: 5'-amino, coupled to magnetic particles
B1 showed a Kd [1] of 0.35 nM.

B2: S01 (ssDNA)
DNA: ATCCAGAGTGACGCAGCATGCTTAAGGGGGGGGCGGGTTAAGGGAGTGGGGAGGGAGCTGGTGTGGACACGGTGGCTTAGT
modifications: 5'-amino, coupled to magnetic particles
Work on B2 yielded a Kd [2] of 0.19 nM.

B3: HRP-2-702 (ssDNA)
DNA: ATCCAGAGTGACGCAGCATTAAATAGGGGTTTGGCTTTGGGTCTGGCATATAGGAACAAGTTTGGACACGGTGGCTTAGT
modifications: immobilized on magnetic particles
B3 showed a Kd [3] of 0.128 nM.

B4: NGAL-05 (ssDNA)
DNA: GAATTCCGCCCTCGTCCCATCTCGGCTTGGTATGGCGGAGCTGGATAGTATAGTCGGAACACCAACCGAGAACGGAATTC
modifications: immobilized on magnetic particles
With B4 the Kd [4] was 0.92 nM.
